According to article PMC12693566:

Target: UNC-119 tagged with the C-terminal fragment of Venus (C. elegans) (UniProt Q10658)
Test: split reporter (BiFC, NanoBiT); BiFC in vivo in transgenic C. elegans (AWC neurons); ODR-3 tagged with VN, partner tagged with VC; read-out is the percentage of animals showing Venus fluorescence

Chain of UniProt Q10658 (Q10658 whole entry, the tested form may be a part): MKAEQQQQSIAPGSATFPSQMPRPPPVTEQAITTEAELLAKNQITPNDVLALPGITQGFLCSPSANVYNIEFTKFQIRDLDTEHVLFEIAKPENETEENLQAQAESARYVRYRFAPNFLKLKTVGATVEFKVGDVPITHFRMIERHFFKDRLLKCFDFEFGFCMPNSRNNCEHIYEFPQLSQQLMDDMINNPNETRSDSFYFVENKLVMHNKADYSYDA

percent of animals with BiFC [%]	Substance
51	ODR-3^A328P tagged with the N-terminal Venus fragment (from UniProt Q18434 1-356) (natural protein)
81	ODR-3^WT tagged with the N-terminal Venus fragment (from UniProt Q18434 1-356) (natural protein)
